Paper doi:10.1101/2023.05.30.542861
Each block holds one substance with its values, some of them ahead of it.

Columns and labels:
[1] = molecular target: Alcohol dehydrogenase from baker's yeast (baker's yeast) (UniProt P00330); test: cross-linking
[2] = tested on: P00330; test: mass photometry; details: other: mass photometry
[3] = molecular target: subunits of the human 20S proteasome (28 subunits); test: cross-linking

Substance: Alcohol dehydrogenase from baker's yeast (from UniProt P00330 1-348) (enzyme)
- % of total counts as dimers (25:1 DSBU:ADH) [1]: 25%
- % of total counts as monomers (25:1 DSBU:ADH) [1]: 50%
- % of total counts as tetramers (25:1 DSBU:ADH) [1]: 10%
- % of total counts as tetramers (DSBU molar excess ≥ 100) [1]: 53%
- % of total counts as trimers (25:1 DSBU:ADH) [1]: 14%
- stoichiometry N [1]: 4

Substance: Alcohol dehydrogenase from baker's yeast
- % monomers after 5 min in guanidine HCl (dMP) [2]: ∼34 % monomers

- % covalently stabilised 20S proteasome (25:1 DSBU:20S) [3]: 16%
- % covalently stabilised 20S proteasome (400:1 DSBU:20S) [3]: 25%
Substance: subunits of the human 20S proteasome (28 subunits)
